Reference: paper PMC12691818
Blank lines part the entries; values can stand above or below the substance they belong to.

Experiments:
[1] = target: Xenopus laevis PP1c (XePP1c) (Xenopus laevis (endogenous in oocytes))
[2] = target: PfPP1c (Plasmodium falciparum Protein Phosphatase 1 catalytic subunit, recombinant) (Plasmodium falciparum) (UniProt Q8ILV1)
[3] = target: Xenopus laevis PP1c (XePP1c) (Xenopus laevis (endogenous in oocytes)); remark: listed apart in the source
[4] = target: Xenopus laevis PP1c (XePP1c) (Xenopus laevis (endogenous in oocytes)); remark: listed apart in the source

Substance: PbRpt3-KATA/RKAEA (HA-tagged PbRpt3 with both RVxF motifs mutated) (natural protein)
percentage of GVBD of progesterone-treated Xenopus oocytes microinjected with PbRpt3-KATA/RKAEA cRNA (control 80%) [1]: 76 % GVBD

PfPP1c phosphatase activity on pNPP; 37.5 to 600 pmol PfI2 with 1 µg PfPP1c; value at 600 pmol [2]: 60%
Substance: PfI2 (inhibitor of PP1c, Plasmodium falciparum) (natural protein)

Substance: PbRpt3 ATP-binding site mutant (HA-tagged PbRpt3 substituted for alanines in positions K188, D241, N288 and Q356) (natural protein)
percentage of GVBD of progesterone-treated Xenopus oocytes microinjected with PbRpt3 cRNA mutated for the ATP-binding sites (PbRpt3 1.7%, PG-treated oocytes 80.8%) [3]: 39.2 % GVBD

Substance: HA-tagged PbRpt3 protein (full-size 45 kDa native PbRpt3 translated from microinjected cRNA in Xenopus oocytes) (from UniProt A0A509AIQ8 1-395) (natural protein)
percentage of GVBD of progesterone-treated Xenopus oocytes microinjected with PbRpt3 cRNA (control 80%) [1]: 1.7 % GVBD
percentage of GVBD of progesterone-treated Xenopus oocytes microinjected with PbRpt3 cRNA (PG alone 86.7%) [4]: 1.7 % GVBD

Substance: PbRpt3-RKAEA (HA-tagged PbRpt3 mutated 305-RKIEF-309 to 305-RKAEA-309) (natural protein)
percentage of GVBD of progesterone-treated Xenopus oocytes microinjected with PbRpt3-RKAEA cRNA (control 80%) [1]: 23.3 % GVBD

Substance: PbRpt3-KATA (HA-tagged PbRpt3 mutated 200-KVTF-203 to 200-KATA-203) (natural protein)
percentage of GVBD of progesterone-treated Xenopus oocytes microinjected with PbRpt3-KATA cRNA (control 80%) [1]: 26.6 % GVBD

Substance: PbRpt3-30 kDa (recombinant truncated PbRpt3, aa 131-395) (domain or fragment)
PfPP1c phosphatase activity on pNPP; 37.5 to 600 pmol PbRpt3-30 kDa preincubated with 1 µg PfPP1c; value at 600 pmol (% PP1c activity) [2]: > 400
